According to patent US20240209086A1 (PETMEDIX, published 2024):
Positions count from the first letter of the chain named.

B1: PMX182 (monospecific anti-canine CD3, canine IgG-B effector function deficient Fc) (antibody)
heavy: EVQLVESGGDLVKPGGSLRLSCVTSGFTFSNYHMNWVRQAPGKGLQWVAYINSGGSSTSYADAVKGRFTISRDNAKNTLYLQMNSLRAEDTAMYYCASDWDYCADDTCEGMGYWGHGTSLFVSSASTTAPSVFPLAPSCGSTSGSTVALACLVSGYFPEPVTVSWNSGSLTSGVHTFPSVLQSSGLYSLSSMVTVPSSRWPSETFTCNVAHPASKTKVDKPVPKRENGRVPRPPDCPKCPAPESLGGPSVFIFPPKPKDTLLIARTPEVTCVVVDLGREDPEVQISWFVDGKQMQTAKTQPREEQFNGTYRVVSVLPIGHQDWLKGKQFTCKVNHIGLPSPIERTISKARGQAHQPSVYVLPPSREELSKNTVSLTCLIKDFFPPDIDVEWQSNGQQEPESKYRTTPPQLDEDGSYFLYSKLSVDKSRWQRGDTFICAVMHEALHNHYTQKSLSHSPGK
VL: SYVLTQLPSKNVTLKQPAHITCGGDNIGSKSVHWYQQKLGQAPVLIIYYDSSRPTGIPERFSGANSGNTATLTISGALAEDEADYYCQVWDSSAKAWVFGEGTQLTVL
B2: PMX183 (monospecific anti-canine CD3, canine IgG-B effector function deficient Fc) (antibody, V domains shown)
VH: ELTLQESGPGLVKPSQTLSLTCVVSGGSVTNSYYWNWIRQRPGRELEWMGYWTGGTKYNPAFQGRISISADTAKNQFSLQLTSMTTEDTAVYYCARDRDRRVPHAYGYWGQGTLVTVSS
VL: B1 VL with W97S, E101G, Q104H
B3: PMX196 (monospecific anti-canine CD3, canine IgG-B effector function deficient Fc) (antibody, V domains shown)
VH: ELTLQESGPGLVKPSQTLSLTCVVSGGSVTSSYYWNWIRQRPGRGLEWMGYWTGSTIYNPAFQGRISITADTAKNQFSLQLSSMTTEDTAVYFCVRERRMAFGSWGQGTLVIVSS
VL: B1 VL with N11S, S29R, Y48S, Y49F, S51N, S52N, W97S, E101G, Q104H
B4: PMX197 (monospecific anti-canine CD3, canine IgG-B effector function deficient Fc) (antibody, V domains shown)
VH: ELTLQESGPGLVKPSQTLSLTCLVSGGSVTRSYYWNWIRQRPGRGLEWMGYWTGSTNYNPAFQGRISIIPDTAKNQFSLQLTSMTTDDTAIYFCAREGGRTLGAFADWGQGTLVTVSS
VL: B1 VL with N26K, S31N, W97S, E101G, Q104H
B5: PMX184 (monospecific anti-canine CD3, canine IgG-B effector function deficient Fc) (antibody, V domains shown)
VH: ELTLQESGPGLVKPSQTLSLTCGVSGGSVTRSHYWNWVRQRPGRGLEWMGYWTGSTNYNPAFQGRISITADTAKNQFSLQLRSMTTEDTAVYFCARETTIPTFFFDYWGQGTLVTVSS
VL: B1 VL with S93G
B6: PMX185 (monospecific anti-canine CD3, canine IgG-B effector function deficient Fc) (antibody)
heavy: EVQLVESGGDLVKPGGSLRLSCVASGFTFSSYHMSWVRQAPGKGLQWVASINSGGSRTSYVDAVKGRFTISRDNAKKTLYLQMNSLRAEDTAVYYCASGRTGPKLGLGDYGMDSWGHGTSLFVSSASTTAPSVFPLAPSCGSTSGSTVALACLVSGYFPEPVTVSWNSGSLTSGVHTFPSVLQSSGLYSLSSMVTVPSSRWPSETFTCNVAHPASKTKVDKPVPKRENGRVPRPPDCPKCPAPESLGGPSVFIFPPKPKDTLLIARTPEVTCVVVDLGREDPEVQISWFVDGKQMQTAKTQPREEQFNGTYRVVSVLPIGHQDWLKGKQFTCKVNHIGLPSPIERTISKARGQAHQPSVYVLPPSREELSKNTVSLTCLIKDFFPPDIDVEWQSNGQQEPESKYRTTPPQLDEDGSYFLYSKLSVDKSRWQRGDTFICAVMHEALHNHYTQKSLSHSPGK
VL: B1 VL with L45M
B7: PMX198 (monospecific anti-canine CD3, canine IgG-B effector function deficient Fc) (antibody, V domains shown)
VH: EFTLQESGPGLVKPSQTLSLTCIVSGGSVTSSYYWNWIRQRPGRGLEWMGYWTGSTNYNPAFQGRISITPDTAKNQFSLQLSSMTTEDTAVYYCAREGGSSLQAFGNWGQGTLVTVSS
VL: B1 VL with S29R, V44I, W97S, E101G, Q104H
B8: PMX195 (monospecific anti-canine CD3, canine IgG-B effector function deficient Fc) (antibody, V domains shown)
VH: EVQLVESGGDLVKPAGSLRLSCMASGFTFSSYSMSWVRQAPEKGLQLVAGINGDGSTTYYTDAVKGRFTISRDNAKNTVYLQMNNLRVEDSAMYYCAKGAGTGDYWGQGTLVTVSS
VL: SYELTQPPSLNVTLRETAHITCGGDRIGSRYVQWIQQNPGQAPVVVIYKDSNRPTGIPERFSGANSGNTATLTISGALAEDEADYYCQVGDSGNWVFGGGTQLTVL
B9: PMX193 (monospecific anti-canine CD3, canine IgG-B effector function deficient Fc) (antibody, V domains shown)
VH: EVQLVESGGDLVKPGGSLRLSCVASGFTFSTYHMSWVRQAPGKGLQWVAYISSGGSRTNYADAVKGRFTISRDNAKNTLYLQMNSLRAEDAAVFYCARHYGSSLFDYWGQGTLVTVSS
VL: DIVMTQTPLSLSVSPGEPASISCKASQSLLHINGNTYLYWFRQKPGQSPQRLIYKVSNRDPGVPDRFSGSGSGTDFTLRISRVEADDAGVYYCGQGIQDPTFGKGTHLEIK
B10: PMX194 (monospecific anti-canine CD3, canine IgG-B effector function deficient Fc) (antibody, V domains shown)
VH: EVQLVESGGDLVKPGGSLRLSCVASGFTFSNYHMSWVRQAPGKGLQWVAYSNSGRMSTDYADAVKGRFTISRDNAKNTLYLQMNSLRPEDTAVYYCATVIYGLFDYWGQGTLVTVSS
VL: DIVMTQTPLSLSVSPGEPASISCKASQSLLYSNGNTYLYWFRQKPGQSPQRLIYKVSKRDSGVPDRFSGSGSGTDFTLRIRRVEADDAGVYYCGQGTQDPYTFSQGTKLEIK
B11: PMX181 (monospecific anti-canine CD3, canine IgG-B effector function deficient Fc) (antibody, V domains shown)
VH: ELTLQESGPGLVKPSQTLSLTCIVSGGSVTNNYYWTWIRQRPGRGLEWMGYWTGFTNYNPAFQGRISIIANTAKKQLSLQLSSLTTEDTAVYYCARRAIPTYFDYWGQGTLVTVSS
VL: SYVLTQLPSKNVTLKQPAHITCGGDNIGSRSVHWYQQKLGQAPVLIIYYDSSRPTGIPERFSGANSGNTATLTISGALAEDEADYYCQVWDSSASVFGGGTHLTVL

biological target: canine CD3 on canine T cells (canine PBMC) (canine, UniProt P27597 22-202); experiment: cell-based or functional assay
Sequence (P27597 22-202 limits assumed, chain 1 of 3): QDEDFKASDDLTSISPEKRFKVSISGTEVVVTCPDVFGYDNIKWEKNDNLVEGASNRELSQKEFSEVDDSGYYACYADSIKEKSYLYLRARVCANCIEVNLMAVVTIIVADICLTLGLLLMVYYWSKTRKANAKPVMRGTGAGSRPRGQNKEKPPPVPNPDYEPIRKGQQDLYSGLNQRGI
Sequence (chain, as listed by the source limits assumed, chain 2 of 3): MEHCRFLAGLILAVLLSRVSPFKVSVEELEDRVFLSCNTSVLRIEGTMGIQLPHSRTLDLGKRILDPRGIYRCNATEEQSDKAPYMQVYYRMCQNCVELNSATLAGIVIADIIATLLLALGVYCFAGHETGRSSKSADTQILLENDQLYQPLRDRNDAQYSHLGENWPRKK
Sequence (chain, as listed by the source limits assumed, chain 3 of 3): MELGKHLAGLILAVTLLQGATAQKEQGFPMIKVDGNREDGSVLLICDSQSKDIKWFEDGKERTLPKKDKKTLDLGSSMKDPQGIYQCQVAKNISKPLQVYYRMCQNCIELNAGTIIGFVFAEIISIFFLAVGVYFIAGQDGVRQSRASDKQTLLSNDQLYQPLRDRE

Row | CD25 Activation, Day 6, IS | CD25 Activation, Day 6, PB | CD25 Activation, Day 9, IS | CD25 Activation, Day 9, PB | IFNy Concentration pg/ml, Day 6, IS [pg/mL] | IFNy Concentration pg/ml, Day 9, IS [pg/mL] | IFNy Concentration pg/ml, Day 9, PB [pg/mL] | Ki67 Proliferation, Day 6, IS | Ki67 Proliferation, Day 6, PB | Ki67 Proliferation, Day 9, IS | Binder
1 | 7.88 | 5.89 | 14.6 | 21.4 | 50.2 | 1340 | 1470 | 2.01 | 0.7 | 1.72 | B1
2 | 13.3 | 13.6 | 10.1 | 13.3 | 63.7 | 153 | 145 | 1.61 | 0.36 | 1.99 | B2
3 | 10.4 | 23 | 6.6 | 17.1 | 34.8 | 160 | 2080 | 0.92 | 1.41 | 0.94 | B3
4 | 10.5 | 23.3 | 9.24 | 14 | 58 | 307 | 2340 | 1.43 | 0.67 | 3.21 | B4
5 | 10.4 | 28.8 | 12.3 | 28.2 | 74.8 | 322 | 3290 | 2.42 | 1.47 | 1.64 | B5
6 | 14.7 | 11.9 | 10.3 | 13.9 | 86.7 | 217 | 166 | 0.93 | 0.85 | 2.65 | B6
7 | 11.3 | 26.8 | 10.4 | 25.5 | 82.8 | 191 | 2790 | 0.87 | 0.61 | 4.37 | B7
8 | 10.4 | 16.8 | 7.58 | 14.7 | 63.9 | 208 | 627 | 2.94 | 0.43 | 2.33 | B8
9 | 8.3 | 11.1 | 12.6 | 16.1 | 52.6 | 544 | 401 | 0.64 | 0.11 | 1.53 | B9
10 | 13 | 17.3 | 7.96 | 17.1 | 133 | 170 | 568 | 1.46 | 0.21 | 1.49 | B10
11 | 10.6 | 5.68 | 9.09 | 23.9 | 33.1 | 118 | 1690 | 2.15 | 0.55 | 2.69 | B11

same assay, conditions: not given

Row | Ki67 Proliferation, Day 9, PB | Binder
12 | 1.55 | B1
13 | 0.48 | B2
14 | 0 | B3
15 | 0 | B4
16 | 0.75 | B5
17 | 0.39 | B6
18 | 0 | B7
19 | 0.67 | B8
20 | 0.18 | B9
21 | 1.11 | B10
22 | 0.7 | B11
